B1: Tn5-F: FLAG-tagged Tn5 transposase purified in-house, negative control probe; amino acid SEQ ID NO: 19 (protein)
chain: MITSALHRAADWAKSVFSSAALGDPRRTARLVNVAAQLAKYSGKSITISSEGSKAMQEGAYRFIRNPNVSAEAIRKAGAMQTVKLAQEFPELLAIEDTTSLSYRHQVAEELGKLGSIQDKSRGWWVHSVLLLEATTFRTVGLLHQEWWMRPDDPADADEKESGKWLAAAATSRLRMGSMMSNVIAVCDREADIHAYLQDKLAHNERFVVRSKHPRKDVESGLYLYDHLKNQPELGGYQISIPQKGVVDKRGKRKNRPARKASLSLRSGRITLKQGNITLNAVLAEEINPPKGETPLKWLLLTSEPVESLAQALRVIDIYTHRWRIEEFHKAWKTGAGAERQRMEEPDNLERMVSILSFVAVRLLQLRESFTPPQALRAQGLLKEAEHVESQSAETVLTPDECQLLGYLDKGKRKRKEKAGSLQWAYMAIARLGGFMDSKRTGIASWGALWEGWEALQSKLDGFLAAKDLMAQGIKIDYKDDDDK
modifications: FLAG tag
B2: TP5: Tn5 transposase-GSGAGA linker-APEX2 peroxidase fusion, C-terminal FLAG; amino acid SEQ ID NO: 31 (protein)
chain: MITSALHRAADWAKSVFSSAALGDPRRTARLVNVAAQLAKYSGKSITISSEGSKAMQEGAYRFIRNPNVSAEAIRKAGAMQTVKLAQEFPELLAIEDTTSLSYRHQVAEELGKLGSIQDKSRGWWVHSVLLLEATTFRTVGLLHQEWWMRPDDPADADEKESGKWLAAAATSRLRMGSMMSNVIAVCDREADIHAYLQDKLAHNERFVVRSKHPRKDVESGLYLYDHLKNQPELGGYQISIPQKGVVDKRGKRKNRPARKASLSLRSGRITLKQGNITLNAVLAEEINPPKGETPLKWLLLTSEPVESLAQALRVIDIYTHRWRIEEFHKAWKTGAGAERQRMEEPDNLERMVSILSFVAVRLLQLRESFTPPQALRAQGLLKEAEHVESQSAETVLTPDECQLLGYLDKGKRKRKEKAGSLQWAYMAIARLGGFMDSKRTGIASWGALWEGWEALQSKLDGFLAAKDLMAQGIKIGSGAGAGKSYPTVSADYQDAVEKAKKKLRGFIAEKRCAPLMLRLAFHSAGTFDKGTKTGGPFGTIKHPAELAHSANNGLDIAVRLLEPLKAEFPILSYADFYQLAGVVAVEVTGGPKVPFHPGREDKPEPPPEGRLPDPTKGSDHLRDVFGKAMGLTDQDIVALSGGHTIGAAHKERSGFEGPWTSNPLIFDNSYFTELLSGEKEGLLQLPSDKALLSDPVFRPLVDKYAADEDAFFADYAEAHQKLSELGFADADYKDDDDK
modifications: C-terminal FLAG

Tests used:
[1] = test system: HEK293T nuclei; test: iDAPT protein labeling, western blot of labeled nuclear lysates; type: biochemical, human; conditions: extracted HEK293T nuclei
Protocol: (§1) DNA and protein tagging by iDAPT. All iDAPT proteomic labeling assays were performed as described below unless indicated otherwise. 2.5 μmol MEDS-A/B, 2 μmol enzyme, and 1 μmol hemin chloride per channel were incubated at room temperature for 1 hour. 1e7 cells per sample were washed (500×g, 5 minutes, 4° C.), lysed and triturated in 100 μL LB1 (10 mM Tris-HCl pH 7.5, 10 mM NaCl, 3 mM MgCl2, 1% BSA, 0.01% digitonin, 0.1% Tween-20, 0.1% NP-40, and 1× cOmplete EDTA-free protease inhibitor cocktail [Roche]) for 3 minutes, and subsequently supplemented with an additional 1 mL of LB2 (10 mM Tris-HCl pH 7.5, 10 mM NaCl, 3 mM MgCl2, 1% BSA, 0.1% Tween-20, and 1× protease inhibitor). Nuclei were pelleted (500×g, 10 minutes, 4° C.), resuspended with tagmentation reaction mixture (20% dimethylformamide, 10 mM MgCl2, 20 mM Tris-HCl pH 7.5, 33% 1×PBS, 1% BSA, 0.01% digitonin, 0.1% Tween-20, 500 μM biotin-phenol, 1× protease inhibitor, and 2 pmol enzyme equivalent of enzyme:DNA:heme complex in a total volume of 500 μL), and incubated at 37° C. for 30 minutes with agitation on a thermomixer (1,000 rpm). 5 μL of tagmentation mix was saved for quality assessment as described above for ATAC-seq/iDAPT-seq sample preparation. The remaining nuclear suspension was then washed 2× with 1×PBS supplemented with 500 μM biotin-phenol, 1% BSA, 0.1% Tween-20, and 1× protease inhibitor (3000×g, 5 minutes, 4° C.) and labeled with 1 mM hydrogen peroxide and 500 μM biotin-phenol for 1 minute in 1×PBS with 1× protease inhibitor in a volume of 500 μL. Peroxidation reactions were quenched with 500 μL 2× quenching buffer (10 mM Trolox, 20 mM sodium ascorbate, 20 mM NaN3, and 1× protease inhibitor in 1×PBS). Labeled nuclei were then pelleted, washed with 1× quenching buffer, resuspended in 500 μL RIPA containing protease inhibitors, and frozen at −80° C. Lysates were thawed on ice, sonicated via a Sonic Dismembrator 100 (Fisher Scientific, setting 3, 15 seconds, 4 pulses), and incubated on ice for 30 minutes after the addition of 1 μL benzonase (EMD Millipore). Lysates were clarified by centrifugation (15,000×g, 20 minutes, 4° C.), quantified via the detergent-compatible Bradford assay (Thermo Fisher Scientific), and subjected to either Western blotting or quantitative mass spectrometry analyses as described below. For NB4 cell analysis, an additional endogenous peroxidase blocking step was added after nuclear extraction and before tagmentation: nuclei were resuspended in 500 μL 1×PBS containing 1% BSA, 0.03% hydrogen peroxide, and 0.1% NaN3 and incubated on ice for 30 minutes. Nuclei were pelleted and washed 4× with 1×PBS/1% BSA (3000×g, 5 minutes, 4° C.). Residual hydrogen peroxide was monitored by colorimetric assessment of supernatant via Quantofix peroxides test stick (Sigma).
(§2) Western blotting analysis. Whole cell or nuclear lysates were generated by resuspending cells or nuclei in RIPA (Boston BioProducts) supplemented with 1× cOmplete EDTA-free protease inhibitor cocktail (Roche). […] Lysates were clarified by centrifugation (15,000×g, 20 minutes, 4° C.) and their concentrations quantified via the detergent-compatible Bradford assay (Thermo Fisher Scientific). […] Membranes were blocked with 3% milk in PBS-T and incubated overnight with primary antibody and subsequently with secondary antibody after brief washing with PBS-T. Chemiluminescence was determined by applying ECL Western Blotting detection reagent (GE Healthcare) to membranes and imaging on an Amersham Imager 600 (GE Healthcare). […]

[2] = test system: HT1080 cells; test: Co-immunofluorescence/ATAC-see analysis; type: cell-based, human
Protocol: Co-immunofluorescence/ATAC-see analysis. ATAC-see was performed similarly as previously described with slight modifications (Chen et al., Nat. Methods 13:1013-1020, 2016). Enzyme and transposon DNA were mixed at a 1:1.25 enzyme:MEDS-A/B-AF647 molar ratio and incubated at room temperature for 1 hour. Adherent cells were grown on glass coverslips (Fisher Scientific, 12-540A) until 80-90% confluent, washed with 1×PBS, fixed with 1% formaldehyde (Electron Microscopy Services) in 1×PBS for 10 minutes, and washed twice with ice-cold 1×PBS. Suspension cells were washed and resuspended with 1×PBS. 50,000 cells were added to poly-lysine slides and incubated at room temperature for 1 hour in a humidified chamber. An equal volume of 2% formaldehyde was added and incubated for 10 minutes, whereupon slides were washed twice with ice-cold 1×PBS. Immobilized cells were lysed by incubation with LB1 for 3 minutes followed by LB2 for 10 minutes at room temperature. Cells were then subject to tagmentation (20% dimethylformamide, 10 mM MgCl2, 20 mM Tris-HCl pH 7.5, 33% 1×PBS, 0.01% digitonin, 0.1% Tween-20, and either 80 pmol enzyme equivalent of enzyme:DNA complex in a total volume of 100 μL for adherent cells or 10 pmol enzyme equivalent of enzyme:DNA complex in a total volume of 50 μL for suspension cells) for 30 minutes at 37° C. in a humidified chamber. Subsequently, cells were washed with 50 mM EDTA and 0.01% SDS in 1×PBS three times for 15 minute each at 55° C., lysed for 10 minutes with 0.5% Triton X-100 in 1×PBS at room temperature, and blocked with 1% BSA and 10% goat serum in PBS-T for 1 hour in a humidified chamber. Primary antibody was added to slides in 1% BSA/PBS-T and incubated at 4° C. overnight; slides were then washed and subjected to secondary antibody staining for 1 hour. Slides were washed with PBS-T three times for 15 minutes each, stained with DAPI (Sigma, 1 μg/mL) for 1 minute, washed with PBS for 10 minutes, and mounted with Fluorescence Mounting Medium (Dako). Confocal microscopy images were taken with an LSM 880 Axio Imager 2 at 63× magnification (Zeiss). Images were processed with Fiji/ImageJ v2.0.0.
Primary antibodies used were anti-RNA polymerase II CTD repeat YSPTSPS (phospho S2) (rabbit, Abcam ab5095, 1:500), anti-H3K27Ac (rabbit, Abcam ab4729, 1:500), anti-H3K9me3 (rabbit, Abcam ab8898, 1:500), anti-CCDCl2 (rabbit, Atlas Antibodies HPA060530, 1:200), anti-SNRPA (mouse, 3F9-1F7, Sigma-Aldrich WH0006626M1, 1:100). […]
Quantitative image analyses were performed with CellProfiler v3.1.5. […] Pearson correlation coefficients were determined by comparing ATAC-see pixel intensities with corresponding immunofluorescence intensity values within each ROI to assess the nucleus-to-nucleus variation in colocalization. […]

[3] = test system: GM12878 nuclei; test: Peroxidase-mediated biotin labeling after transposition, western blot; type: biochemical, human
Protocol: Western blot. Whole cell lysate was generated by resuspending cells washed with 1×PBS in RIPA (Boston BioProducts) supplemented with 1× complete EDTA-free protease inhibitor cocktail (Roche). Cells were subject to sonication via a Sonic Dismembrator 100 (Fisher Scientific) at setting 2, with 3 pulses of 15 seconds on/off on ice. Lysates were clarified by centrifugation (15,000×g, 30 minutes, 4° C.) and their concentrations quantified with detergent-compatible Bradford assay (Thermo Fisher Scientific). All Western blots were run on NuPAGE 4-12% Bis-Tris protein gels (Thermo Fisher Scientific) and transferred to […] nitrocellulose membranes (GE Healthcare). Membranes were stained with Ponceau S, blocked with 3% milk in PBS-T, and incubated overnight with primary antibody and subsequently with secondary antibody after brief washing with PBS-T. Chemiluminescence was determined by applying ECL Western Blotting detection reagent (GE Healthcare) to membranes and imaging on an Amersham Imager 600 (GE Healthcare). Membranes were stripped with Restore PLUS Stripping Buffer (Thermo Fisher Scientific); streptavidin-HRP was inactivated with 15% hydrogen peroxide. […]

[4] = test system: K562 nuclei; test: iDAPT protein labeling, western blot of labeled nuclear lysates; type: biochemical, human
Protocol: as §1, §2

Row | Molecule | peroxidase-dependent biotin signal [1] | ATAC-see correlation with H3K9me3 immunofluorescence ([2]; marker of transcriptionally inactive chromatin) | ATAC-see correlation with H3K27Ac and RNAPII S2P immunofluorescence signal ([2]; markers of transcriptionally active chromatin) | biotinylation signal (streptavidin) [3] | biotin labeling [4]
1 | B1 | low signal | similarly poor correlations | similarly positive correlations |  | 
2 | B2 |  |  |  | highest signals | highest levels of labeling
